Target: Recombinant Human IL-13 (human, UniProt P35225 35-146, limits assumed)
Test: Biacore SPR
Method in brief: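 Antibodies or DVD-Ig captured on anti-mouse IgG (Fcγ) CM5 surface, SPR at 25 °C in HBS-EP+. Antigen at 0.8–100 nM, 50 μl/min; association 5 min, dissociation 10 min. kon and koff came from a global 1:1 fit with local Rmax.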

Chain of Recombinant Human IL-13 (P35225 35-146 limits assumed): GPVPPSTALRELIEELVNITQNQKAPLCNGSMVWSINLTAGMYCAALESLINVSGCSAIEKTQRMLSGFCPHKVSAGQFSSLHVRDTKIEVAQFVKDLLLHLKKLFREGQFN

Kd | koff | kon | Binder
0.015 nM | 1.2e-06 s⁻¹ | 75000 M⁻¹ s⁻¹ | DVD3113 (bispecific antibody, IgG1, DVD-Ig; wt hIgG1 + kappa constants) VH: EVQLVQSGAEVKKPGASVKVSCKASGYTFNNYGIIWVRQAPGQGLEWMGWINTYTGKPTYAQKFQGRVTMTTDTSTSTAYMELSSLRSEDTAVYYCARKLFNTVAVTDNAMDYWGQGTTVTVSSGGGGSGGGGSEVQLVQSGAEVKKPGASVKVSCKASGYTFTTYGVSWVRQAPGQGLEWMGEIYPGNYNTYYNEKFRGRVTMTTDTSTSTAYMELRSLRSDDTAVYYCARWRTSYFSDYGYFDYWGQGTTVTVSS VL: DIQMTQSPSSLSASVGDRVTITCRASQDIENYLNWYQQKPGKAPKLLIYYTSRLQSGVPSRFSGSGSGTDFTLTISSLQPEDFATYFCQQGNTQPPTFGQGTKLEIKRGGSGGGGSGDVVMTQSPLSLPVTLGQPASISCRSSQSLVHSHGNTYLHWYQQRPGQSPRLLIYTVSNRFSGVPDRFSGSGSGTDFTLKISRVEAEDVGVYYCSQSTHVPYTFGGGTKVEIKR
0.044 nM | 2.5e-05 s⁻¹ | 580000 M⁻¹ s⁻¹ | DVD3092 (bispecific antibody, IgG1, DVD-Ig; wt hIgG1 + kappa constants) VH: EVQLVQSGAEVKKPGASVKVSCKASGYTFTTYGVSWVRQAPGQGLEWMGEIYPGNYNTYYNEKFRGRVTMTTDTSTSTAYMELRSLRSDDTAVYYCARWRTSYFSDYGYFDYWGQGTTVTVSSASTKGPSVFPLAPEVQLVESGGGLVQPGGSLRLSCAASGFTFSNYGVTWVRQAPGKGLEWVSMIWADGSTHYASSVKGRFTISRDNSKNTLYLQMNSLRAEDTAVYYCAREWQHGPVAYWGQGTLVTVSS VL: DVVMTQSPLSLPVTLGQPASISCRSSQSLVHSHGNTYLHWYQQRPGQSPRLLIYTVSNRFSGVPDRFSGSGSGTDFTLKISRVEAEDVGVYYCSQSTHVPYTFGGGTKVEIKRTVAAPDIQMTQSPSSLSASVGDRVTITCRASQLVSSAVAWYQQKPGKAPKLLIYWASARHTGVPSRFSGSGSGTDFTLTISSLQPEDFATYYCQQHYKTPFTFGQGTKLEIKR
0.12 nM | 7.3e-06 s⁻¹ | 62000 M⁻¹ s⁻¹ | DVD3144 (bispecific antibody, IgG1, DVD-Ig; wt hIgG1 + kappa constants) VH: EVQLVESGGGLVQPGGSLRLSCAASGFTFSNYGVTWVRQAPGKGLEWVSMIWADGSTHYASSVKGRFTISRDNSKNTLYLQMNSLRAEDTAVYYCAREWQHGPVAYWGQGTLVTVSSASTKGPEVQLVQSGAEVKKPGASVKVSCKASGYTFTSYWMHWVRQAPGQGLEWIGNINPKGGSNIYNEKFQGRVTMTRDTSISTAYMELSRLRSDDTAVYYCARLDYFGDSFDLWGQGTTVTVSS VL: DIQMTQSPSSLSASVGDRVTITCRASQLVSSAVAWYQQKPGKAPKLLIYWASARHTGVPSRFSGSGSGTDFTLTISSLQPEDFATYYCQQHYKTPFTFGQGTKLEIKRTVAAPDIQMTQSPSSLSASVGDRVTITCRASQGIRNYLNWYQQKPGKAPKLLIYYASNLEVGVPSRFSGSGSGTDYTLTISSLQPEDFATYYCQQDNRFPYTFGGGTKVEIKR
0.58 nM | 3e-05 s⁻¹ | 53000 M⁻¹ s⁻¹ | DVD3154 (bispecific antibody, IgG1, DVD-Ig; wt hIgG1 + kappa constants) VH: EVQLVESGGGLVQPGGSLRLSCAASGFTFSNYGVEWVRQAPGKGLEWVSGIWADGSTHYADTVKSRFTISRDNSKNTLYLQMNSLRAEDTAVYYCAREWQHGPVAYWGQGTLVTVSSASTKGPEVQLVQSGAEVKKPGASVKVSCKASGYTFTSYWMHWVRQAPGQGLEWIGNINPKGGSNIYNEKFQGRVTMTRDTSISTAYMELSRLRSDDTAVYYCARLDYFGDSFDLWGQGTTVTVSS VL: DIQMTQSPSSLSASVGDRVTITCKASQLVSSAVAWYQQKPGKAPKLLIYWASTLHTGVPSRFSGSGSGTDFTLTISSLQPEDFATYYCQQHYRTPFTFGQGTKLEIKRTVAAPDIQMTQSPSSLSASVGDRVTITCRASQGIRNYLNWYQQKPGKAPKLLIYYASNLEVGVPSRFSGSGSGTDYTLTISSLQPEDFATYYCQQDNRFPYTFGGGTKVEIKR
0.0069 nM | 1.2e-06 s⁻¹ | 170000 M⁻¹ s⁻¹ | DVD3114 (bispecific antibody, IgG1, DVD-Ig; wt hIgG1 + kappa constants) VH: EVQLVQSGAEVKKPGASVKVSCKASGYTFNNYGIIWVRQAPGQGLEWMGWINTYTGKPTYAQKFQGRVTMTTDTSTSTAYMELSSLRSEDTAVYYCARKLFNTVAVTDNAMDYWGQGTTVTVSSASTKGPEVQLVQSGAEVKKPGASVKVSCKASGYTFTTYGVSWVRQAPGQGLEWMGEIYPGNYNTYYNEKFRGRVTMTTDTSTSTAYMELRSLRSDDTAVYYCARWRTSYFSDYGYFDYWGQGTTVTVSS VL: DIQMTQSPSSLSASVGDRVTITCRASQDIENYLNWYQQKPGKAPKLLIYYTSRLQSGVPSRFSGSGSGTDFTLTISSLQPEDFATYFCQQGNTQPPTFGQGTKLEIKRTVAAPDVVMTQSPLSLPVTLGQPASISCRSSQSLVHSHGNTYLHWYQQRPGQSPRLLIYTVSNRFSGVPDRFSGSGSGTDFTLKISRVEAEDVGVYYCSQSTHVPYTFGGGTKVEIKR
< 0.02 nM | < 1e-06 s⁻¹ | 51000 M⁻¹ s⁻¹ | DVD3087 (bispecific antibody, IgG1, DVD-Ig; wt hIgG1 + kappa constants) VH: EVQLVESGGGLVQPGGSLRLSCAASGFTFSNYGVTWVRQAPGKGLEWVSMIWADGSTHYASSVKGRFTISRDNSKNTLYLQMNSLRAEDTAVYYCAREWQHGPVAYWGQGTLVTVSSASTKGPSVFPLAPEVQLVQSGAEVKKPGASVKVSCKASGYTFTTYGVSWVRQAPGQGLEWMGEIYPGNYNTYYNEKFRGRVTMTTDTSTSTAYMELRSLRSDDTAVYYCARWRTSYFSDYGYFDYWGQGTTVTVSS VL: DIQMTQSPSSLSASVGDRVTITCRASQLVSSAVAWYQQKPGKAPKLLIYWASARHTGVPSRFSGSGSGTDFTLTISSLQPEDFATYYCQQHYKTPFTFGQGTKLEIKRTVAAPDVVMTQSPLSLPVTLGQPASISCRSSQSLVHSHGNTYLHWYQQRPGQSPRLLIYTVSNRFSGVPDRFSGSGSGTDFTLKISRVEAEDVGVYYCSQSTHVPYTFGGGTKVEIKR
< 0.021 nM | < 1e-06 s⁻¹ | 48000 M⁻¹ s⁻¹ | DVD3097 (bispecific antibody, IgG1, DVD-Ig; wt hIgG1 + kappa constants) VH: EVQLVESGGGLVQPGGSLRLSCAASGFTFSNYGVEWVRQAPGKGLEWVSGIWADGSTHYADTVKSRFTISRDNSKNTLYLQMNSLRAEDTAVYYCAREWQHGPVAYWGQGTLVTVSSASTKGPSVFPLAPEVQLVQSGAEVKKPGASVKVSCKASGYTFTTYGVSWVRQAPGQGLEWMGEIYPGNYNTYYNEKFRGRVTMTTDTSTSTAYMELRSLRSDDTAVYYCARWRTSYFSDYGYFDYWGQGTTVTVSS VL: DIQMTQSPSSLSASVGDRVTITCKASQLVSSAVAWYQQKPGKAPKLLIYWASTLHTGVPSRFSGSGSGTDFTLTISSLQPEDFATYYCQQHYRTPFTFGQGTKLEIKRTVAAPDVVMTQSPLSLPVTLGQPASISCRSSQSLVHSHGNTYLHWYQQRPGQSPRLLIYTVSNRFSGVPDRFSGSGSGTDFTLKISRVEAEDVGVYYCSQSTHVPYTFGGGTKVEIKR
< 0.015 nM | < 1e-06 s⁻¹ | 65000 M⁻¹ s⁻¹ | DVD3086 (bispecific antibody, IgG1, DVD-Ig; wt hIgG1 + kappa constants) VH: EVQLVESGGGLVQPGGSLRLSCAASGFTFSNYGVTWVRQAPGKGLEWVSMIWADGSTHYASSVKGRFTISRDNSKNTLYLQMNSLRAEDTAVYYCAREWQHGPVAYWGQGTLVTVSSASTKGPEVQLVQSGAEVKKPGASVKVSCKASGYTFTTYGVSWVRQAPGQGLEWMGEIYPGNYNTYYNEKFRGRVTMTTDTSTSTAYMELRSLRSDDTAVYYCARWRTSYFSDYGYFDYWGQGTTVTVSS VL: DIQMTQSPSSLSASVGDRVTITCRASQLVSSAVAWYQQKPGKAPKLLIYWASARHTGVPSRFSGSGSGTDFTLTISSLQPEDFATYYCQQHYKTPFTFGQGTKLEIKRTVAAPSVFIFPPDVVMTQSPLSLPVTLGQPASISCRSSQSLVHSHGNTYLHWYQQRPGQSPRLLIYTVSNRFSGVPDRFSGSGSGTDFTLKISRVEAEDVGVYYCSQSTHVPYTFGGGTKVEIKR
0.00076 nM | 5.3e-08 s⁻¹ | 70000 M⁻¹ s⁻¹ | DVD3096 (bispecific antibody, IgG1, DVD-Ig; wt hIgG1 + kappa constants) VH: EVQLVESGGGLVQPGGSLRLSCAASGFTFSNYGVEWVRQAPGKGLEWVSGIWADGSTHYADTVKSRFTISRDNSKNTLYLQMNSLRAEDTAVYYCAREWQHGPVAYWGQGTLVTVSSASTKGPEVQLVQSGAEVKKPGASVKVSCKASGYTFTTYGVSWVRQAPGQGLEWMGEIYPGNYNTYYNEKFRGRVTMTTDTSTSTAYMELRSLRSDDTAVYYCARWRTSYFSDYGYFDYWGQGTTVTVSS VL: DIQMTQSPSSLSASVGDRVTITCKASQLVSSAVAWYQQKPGKAPKLLIYWASTLHTGVPSRFSGSGSGTDFTLTISSLQPEDFATYYCQQHYRTPFTFGQGTKLEIKRTVAAPSVFIFPPDVVMTQSPLSLPVTLGQPASISCRSSQSLVHSHGNTYLHWYQQRPGQSPRLLIYTVSNRFSGVPDRFSGSGSGTDFTLKISRVEAEDVGVYYCSQSTHVPYTFGGGTKVEIKR
0.37 nM | 6.2e-05 s⁻¹ | 170000 M⁻¹ s⁻¹ | DVD3143 (bispecific antibody, IgG1, DVD-Ig; wt hIgG1 + kappa constants) VH: EVQLVESGGGLVQPGGSLRLSCAASGFTFSNYGVTWVRQAPGKGLEWVSMIWADGSTHYASSVKGRFTISRDNSKNTLYLQMNSLRAEDTAVYYCAREWQHGPVAYWGQGTLVTVSSGGGGSGGGGSEVQLVQSGAEVKKPGASVKVSCKASGYTFTSYWMHWVRQAPGQGLEWIGNINPKGGSNIYNEKFQGRVTMTRDTSISTAYMELSRLRSDDTAVYYCARLDYFGDSFDLWGQGTTVTVSS VL: DIQMTQSPSSLSASVGDRVTITCRASQLVSSAVAWYQQKPGKAPKLLIYWASARHTGVPSRFSGSGSGTDFTLTISSLQPEDFATYYCQQHYKTPFTFGQGTKLEIKRGGSGGGGSGDIQMTQSPSSLSASVGDRVTITCRASQGIRNYLNWYQQKPGKAPKLLIYYASNLEVGVPSRFSGSGSGTDYTLTISSLQPEDFATYYCQQDNRFPYTFGGGTKVEIKR
0.45 nM | 8.2e-05 s⁻¹ | 180000 M⁻¹ s⁻¹ | DVD3153 (bispecific antibody, IgG1, DVD-Ig; wt hIgG1 + kappa constants) VH: EVQLVESGGGLVQPGGSLRLSCAASGFTFSNYGVEWVRQAPGKGLEWVSGIWADGSTHYADTVKSRFTISRDNSKNTLYLQMNSLRAEDTAVYYCAREWQHGPVAYWGQGTLVTVSSGGGGSGGGGSEVQLVQSGAEVKKPGASVKVSCKASGYTFTSYWMHWVRQAPGQGLEWIGNINPKGGSNIYNEKFQGRVTMTRDTSISTAYMELSRLRSDDTAVYYCARLDYFGDSFDLWGQGTTVTVSS VL: DIQMTQSPSSLSASVGDRVTITCKASQLVSSAVAWYQQKPGKAPKLLIYWASTLHTGVPSRFSGSGSGTDFTLTISSLQPEDFATYYCQQHYRTPFTFGQGTKLEIKRGGSGGGGSGDIQMTQSPSSLSASVGDRVTITCRASQGIRNYLNWYQQKPGKAPKLLIYYASNLEVGVPSRFSGSGSGTDYTLTISSLQPEDFATYYCQQDNRFPYTFGGGTKVEIKR

From US20140271457A1 (AbbVie / Abbott, published 2014)
